B1: wild-type Fas receptor (Fas/CD95) tagged with mCerulean3 or mVenus [human] / itself (parent)
chain: QVTDINSKGLELRKTVTTVETQNLEGLHHDGQFCHKPCPPGERKARDCTVNGDEPDCVPCQEGKEYTDKAHFSSKCRRCRLCDEGHGLEVEINCTRTQNTKCRCKPNFFCNSTVCEHCDPCTKCEHGIIKECTLTSNTKCKEEGSRSNLGWLCLLLLPIPLIVWVKRKEVQKTCRKHRKENQGSHESPTLNPETVAINLSDVDLSKYITTIAGVMTLSQVKGFVRKNGVNEAKIDEIKNDNVQDTAEQKVQLLRNWHQLHGKKEAYDTLIKDLKKANLCTLAEKIQTIILKDITSDSENSNFRNEIQSLV

This experiment covers variants of B1. Nature of the experiment: flow-cytometric FRET (mCerulean3/mVenus) in live cells. The conditions noted are these: with itself, RapoC2 (Fas-deficient Jurkat) cells, 24 h post-transfection, read off a plot.

QVTDINSKGLELRKTVTTVETQNLEGLHHDGQFCHKPCPPGERKARDCTVNGDEPDCVPCQEGKEYTDKAHFSSKCRRCRLCDEGHGLEVEINCTRTQNTKCRCKPNFFCNSTVCEHCDPCTKCEHGIIKECTLTSNTKCKEEGSRSNLGWLCLLLLPIPLIVWVKRKEVQKTCRKHRKENQGSHESPTLNPETVAINLSDVDLSKYITTIAGVMTLSQVKGFVRKNGVNEDKIDEIKNDNVQDTAEQKVQLLRNWHQLHGKKEAYDTLIKDLKKANLCTLAEKIQTIILKDITSDSENSNFRNEIQSLV [chain 1 A232D]: the screen value is, setting by setting: (FasL-LZ 5 min, parent: 1.5) 1.3; (FasL-LZ 15 min, parent: 1.9) 1.5; (FasL-LZ 30 min, parent: 2) 1.6; (FasL-LZ 60 min, parent: 1.9) 1.6; (FasL-LZ 120 min, parent: 1.9) 1.6.
Turning to QVTDINSKGLELRKTVTTVETQNLEGLHHDGQFCHKPCPPGERKARDCTVNGDEPDCVPCQEGKEYTDKAHFSSKCRRCRLCDEGHGLEVEINCTRTQNTKCRCKPNFFCNSTVCEHCDPCTKCEHGIIKECTLTSNTKCKEEGSRSNLGWLCLLLLPIPLIVWVKRKEVQKTCRKHRKENQGSHESPTLNPETVAINLSDVDLSKYITTIAGVMTLSQVKGFVRKNGVNEAKIDKIKNDNVQDTAEQKVQLLRNWHQLHGKKEAYDTLIKDLKKANLCTLAEKIQTIILKDITSDSENSNFRNEIQSLV [chain 1 E236K], the screen value (FasL-LZ 5 min, parent: 1.5) was 1.3; the screen value (FasL-LZ 15 min, parent: 1.9) came out at 1.5; the screen value (FasL-LZ 30 min, parent: 2) amounted to 1.6; the screen value (FasL-LZ 60 min, parent: 1.9) was 1.6; the screen value (FasL-LZ 120 min, parent: 1.9) turned out to be 1.6.
Regarding QVTDINSKGLELRKTVTTVETQNLEGLHHDGQFCHKPCPPGERKARDCTVNGDEPDCVPCQEGKEYTDKAHFSSKCRRCRLCDEGHGLEVEINCTRTQNTKCRCKPNFFCNSTVCEHCDPCTKCEHGIIKECTLTSNTKCKEEGSRSNLGWLCLLLLPIPLIVWVKRKEVQKTVRKHRKENQGSHESPTLNPETVAINLSDVDLSKYITTIAGVMTLSQVKGFVRKNGVNEAKIDEIKNDNVQDTAEQKVQLLRNWHQLHGKKEAYDTLIKDLKKANLCTLAEKIQTIILKDITSDSENSNFRNEIQSLV [chain 1 C174V], the screen value amounted to 1.5 (FasL-LZ 5 min, parent: 1.5); 1.9 (FasL-LZ 15 min, parent: 1.9); 2.1 (FasL-LZ 30 min, parent: 2).

For the origin of these results see publication PMC9221696.
